Publication PMC9091222 (2022)

Target: unprocessed hMPV PreF trimer (wild-type hMPV F ectodomain trimer, strain B2, C-terminal GCN4 trimerization … (human metapneumovirus, strain B2))
Test: ELISA

B1: M4B06 IgG (antibody, V domains shown)
VH: EVQLLESGGGFVQPGGSLRLSCVVTGFTFSNYAMCWVRQAPGKGPEWVSGIGGSVGTTYYADSVKGRFTISRDNSKNTLYLQMSGLRAEDTARYYCAKVPSFFVFEDGFDMWGQGTVVTVSS
VL: QSVLTQPPSASGNPGQRVTISCYGSGSNIGNNYVHWFRQLPGTAPRLLIYNTDILVPGVPDRFSGSESGTSASLAISGLQSGDEADYFCAAWDDTLNGYVFGPGTTVTVL
  EC50: 4.4 ng/mL
